Source: patent US6500417 (DSM N V, dated 2002)
Substitutions are numbered along the chain they refer to.

Legend:
IL-3 receptor [1] = target: T1, IL-3 receptor (human, UniProt P26951 19-378; P32927 17-897); assay: cell-based or functional assay
IL-3 receptor [2] = target: T1, IL-3 receptor; assay: competition with radiolabeled hIL-3 for binding to cells, relative to reference IL-3
Description: (§1) An ILK3 receptor binding assay was performed with purified recombinant hIL-3 (see EPA 0390252) was radiolabeled with the Bolton-Hunter reagent (as described by Budel et al., Blood 74 (1989) 565–571). The specific activity was estimated at 80,000 cpm/ng of IL-3. As target, either donor leukocytes, patient AML cells, or MV4-11 (ATCC: CRL-9591) cells were used. Cells were washed in Hanks Balanced Salt solution and suspended in Alpha-MEM plus 1% BSA. Usually, 3–10×10⁶ cells were incubated with 200–300 pM of radiolabeled IL-3 and various concentrations of unlabeled mutant protein in a total volume of 200 µl for 1 hr at 37° C. Cell-bound labeled IL-3 was centrifuged for 10 min at 1000×g at 4° C. through a 0.5 ml cushion of bovine calf serum in an Eppendorf tube (Budel et al., 1989). The tubes were frozen in liquid nitrogen and the tips cut off for counting in a Packard gamma counter. Competition binding was determined relative to the reference preparation. […] Radiolabeled IL-3 binding to patient AML blasts is competed with unlabeled IL-3 protein (reference preparation). Due to the low number of receptors (less than 200) on the target cells, data for competition mostly varied by one order of magnitude.

IL-3 receptor [3] = target: T1, IL-3 receptor; assay: competition with radiolabeled IL-3 for binding to cells; NC: No competition was observed for the particular mutein preparation
Description: as §1

T1 sequence (P26951 19-378, chain 1 of 2): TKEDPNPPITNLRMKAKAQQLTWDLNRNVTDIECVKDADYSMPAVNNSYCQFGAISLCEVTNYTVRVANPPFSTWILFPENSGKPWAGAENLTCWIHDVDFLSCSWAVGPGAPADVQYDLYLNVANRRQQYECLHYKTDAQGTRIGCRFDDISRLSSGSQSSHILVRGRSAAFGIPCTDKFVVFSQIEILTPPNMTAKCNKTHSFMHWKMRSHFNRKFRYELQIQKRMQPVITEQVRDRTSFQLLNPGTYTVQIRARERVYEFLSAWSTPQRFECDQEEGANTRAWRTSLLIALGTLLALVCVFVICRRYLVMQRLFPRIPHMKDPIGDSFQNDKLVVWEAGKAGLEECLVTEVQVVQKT
T1 sequence (P32927 17-897, chain 2 of 2): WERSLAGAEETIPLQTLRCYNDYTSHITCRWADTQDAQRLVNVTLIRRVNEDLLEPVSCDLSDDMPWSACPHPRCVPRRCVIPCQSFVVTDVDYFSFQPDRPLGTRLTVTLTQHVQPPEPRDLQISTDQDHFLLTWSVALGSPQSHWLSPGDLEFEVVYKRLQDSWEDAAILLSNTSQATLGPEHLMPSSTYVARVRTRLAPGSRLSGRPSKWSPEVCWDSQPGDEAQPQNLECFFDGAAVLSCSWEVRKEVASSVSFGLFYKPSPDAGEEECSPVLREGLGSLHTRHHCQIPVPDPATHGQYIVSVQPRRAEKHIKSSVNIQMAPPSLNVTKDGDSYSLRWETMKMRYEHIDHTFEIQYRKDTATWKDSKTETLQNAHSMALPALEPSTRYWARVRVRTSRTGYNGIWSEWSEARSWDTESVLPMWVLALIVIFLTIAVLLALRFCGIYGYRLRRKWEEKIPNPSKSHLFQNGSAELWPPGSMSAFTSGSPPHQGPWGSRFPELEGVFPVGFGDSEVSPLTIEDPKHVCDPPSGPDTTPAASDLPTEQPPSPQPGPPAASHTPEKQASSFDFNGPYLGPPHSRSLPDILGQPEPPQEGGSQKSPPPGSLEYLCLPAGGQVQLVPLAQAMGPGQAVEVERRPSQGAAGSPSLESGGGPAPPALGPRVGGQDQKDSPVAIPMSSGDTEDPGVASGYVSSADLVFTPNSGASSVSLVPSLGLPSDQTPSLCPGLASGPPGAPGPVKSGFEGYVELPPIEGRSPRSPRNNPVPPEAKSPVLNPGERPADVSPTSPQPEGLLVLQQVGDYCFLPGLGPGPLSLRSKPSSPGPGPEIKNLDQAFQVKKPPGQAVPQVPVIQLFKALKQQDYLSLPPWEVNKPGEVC

B1: reference IL-3 preparation (B. licheniformis, full-length IL-3 cDNA in pGB/IL-322) (ligand)
chain: APMTQTTPLKTSWVNCSNMIDEIITHLKQPPLPLLDFNNLNGEDQDILMENNLRRPNLEAFNRAVKSLQNASAIESILKNLLPCLPLATAAPTRHPIHIKDGDWNEFRRKLTFYLKTLENAQAQQTTLSLAIF
modifications: radiolabeled with the Bolton-Hunter reagent when used as tracer
REL. SPEC. BIOLOGICAL ACTIVITY (DNA synthesis of AML193 cells) (IL-3 receptor [1]): 1 relative to reference IL-3

B2: hIL-3 double cysteine mutant 9045 (Cys16Cys84→Ala16Ala84) (ligand)
chain: B1 chain with C16A, C84A
notes: also called 16/84C → A; not shown: heterologous N-terminal leader of the E. coli fusion (pGB/IL-336: 12 aa; pGB/IL-339: 15 aa)
REL. SPEC. BIOLOGICAL ACTIVITY (DNA synthesis of AML193 cells) (IL-3 receptor [1]): 0.00031 relative to reference IL-3
relative antagonistic potential (relative receptor binding activity / relative biological activity) (IL-3 receptor [2]): 88

B3: hIL-3 substitution mutant 904 (Cys16→Ala16) (ligand)
chain: B1 chain with C16A
notes: also called 16C → A; not shown: heterologous N-terminal leader of the E. coli fusion (pGB/IL-336: 12 aa; pGB/IL-339: 15 aa)
REL. SPEC. BIOLOGICAL ACTIVITY (DNA synthesis of AML193 cells) (IL-3 receptor [1]): 0.00024 relative to reference IL-3
relative antagonistic potential (relative receptor binding activity / relative biological activity) (IL-3 receptor [2]): 100

B4: hIL-3 substitution mutant 905 (Cys84→Ala84) (ligand)
chain: B1 chain with C84A
notes: also called 84C → A; not shown: heterologous N-terminal leader of the E. coli fusion (pGB/IL-336: 12 aa; pGB/IL-339: 15 aa)
REL. SPEC. BIOLOGICAL ACTIVITY (DNA synthesis of AML193 cells) (IL-3 receptor [1]): 0.00019 relative to reference IL-3
relative antagonistic potential (relative receptor binding activity / relative biological activity) (IL-3 receptor [2]): 11

B5: hIL-3 substitution mutant 1481 (Glu43Asp44→Lys43Arg44) (ligand)
chain: B1 chain with E43K, D44R
notes: also called 43ED→KR; not shown: heterologous N-terminal leader of the E. coli fusion (pGB/IL-336: 12 aa; pGB/IL-339: 15 aa)
REL. SPEC. BIOLOGICAL ACTIVITY (DNA synthesis of AML193 cells) (IL-3 receptor [1]): < 0.00015 relative to reference IL-3
binding result (IL-3 receptor [3]): no binding

B6: hIL-3 substitution mutant 1483 (Glu50→Lys50) (ligand)
chain: B1 chain with E50K
notes: also called 50E → K; not shown: heterologous N-terminal leader of the E. coli fusion (pGB/IL-336: 12 aa; pGB/IL-339: 15 aa)
REL. SPEC. BIOLOGICAL ACTIVITY (DNA synthesis of AML193 cells) (IL-3 receptor [1]): 0.0027 relative to reference IL-3
relative antagonistic potential (relative receptor binding activity / relative biological activity) (IL-3 receptor [2]): 37

B7: hIL-3 substitution mutant 1484 (Arg54Arg55→Glu54Asp55) (ligand)
chain: B1 chain with R54E, R55D
notes: also called 54RR → ED; not shown: heterologous N-terminal leader of the E. coli fusion (pGB/IL-336: 12 aa; pGB/IL-339: 15 aa)
REL. SPEC. BIOLOGICAL ACTIVITY (DNA synthesis of AML193 cells) (IL-3 receptor [1]): 8e-05 relative to reference IL-3
relative antagonistic potential (relative receptor binding activity / relative biological activity) (IL-3 receptor [2]): 3.5

B8: hIL-3 substitution mutant 1486 (Arg63Ala64→Pro63Gly64) (ligand)
chain: B1 chain with R63P, A64G
notes: also called 63RA → PG; not shown: heterologous N-terminal leader of the E. coli fusion (pGB/IL-336: 12 aa; pGB/IL-339: 15 aa)
REL. SPEC. BIOLOGICAL ACTIVITY (DNA synthesis of AML193 cells) (IL-3 receptor [1]): 9.8e-05 relative to reference IL-3
relative antagonistic potential (relative receptor binding activity / relative biological activity) (IL-3 receptor [2]): 14

B9: hIL-3 substitution mutant 1488 (Lys79→Glu79) (ligand)
chain: B1 chain with K79E
notes: also called 79K → E; not shown: heterologous N-terminal leader of the E. coli fusion (pGB/IL-336: 12 aa; pGB/IL-339: 15 aa)
REL. SPEC. BIOLOGICAL ACTIVITY (DNA synthesis of AML193 cells) (IL-3 receptor [1]): 0.0019 relative to reference IL-3
relative antagonistic potential (relative receptor binding activity / relative biological activity) (IL-3 receptor [2]): 65

B10: hIL-3 substitution mutant 1492 (Arg108Arg109Lys110→Glu108Asp109Glu110) (ligand)
chain: B1 chain with R108E, R109D, K110E
notes: also called 108RRK → EDE; not shown: heterologous N-terminal leader of the E. coli fusion (pGB/IL-336: 12 aa; pGB/IL-339: 15 aa)
REL. SPEC. BIOLOGICAL ACTIVITY (DNA synthesis of AML193 cells) (IL-3 receptor [1]): 3.1e-05 relative to reference IL-3
relative antagonistic potential (relative receptor binding activity / relative biological activity) (IL-3 receptor [2]): 2

B11: hIL-3 substitution mutant 1493 (Phe113Tyr114→Ala113Thr114) (ligand)
chain: B1 chain with F113A, Y114T
notes: also called 113FY → AT; not shown: heterologous N-terminal leader of the E. coli fusion (pGB/IL-336: 12 aa; pGB/IL-339: 15 aa)
REL. SPEC. BIOLOGICAL ACTIVITY (DNA synthesis of AML193 cells) (IL-3 receptor [1]): < 1.2e-05 relative to reference IL-3
binding result (IL-3 receptor [3]): no binding

B12: hIL-3 deletion mutant 936 (deletion 76-83) (ligand)
chain: APMTQTTPLKTSWVNCSNMIDEIITHLKQPPLPLLDFNNLNGEDQDILMENNLRRPNLEAFNRAVKSLQNASAIECLPLATAAPTRHPIHIKDGDWNEFRRKLTFYLKTLENAQAQQTTLSLAIF
notes: not shown: heterologous N-terminal leader of the E. coli fusion (pGB/IL-336: 12 aa; pGB/IL-339: 15 aa)
REL. SPEC. BIOLOGICAL ACTIVITY (DNA synthesis of AML193 cells) (IL-3 receptor [1]): 6.4e-06 relative to reference IL-3
binding result (IL-3 receptor [3]): no binding

B13: hIL-3 deletion mutant 820 (deletion 85-90) (ligand)
chain: APMTQTTPLKTSWVNCSNMIDEIITHLKQPPLPLLDFNNLNGEDQDILMENNLRRPNLEAFNRAVKSLQNASAIESILKNLLPCAPTRHPIHIKDGDWNEFRRKLTFYLKTLENAQAQQTTLSLAIF
notes: as for B12
REL. SPEC. BIOLOGICAL ACTIVITY (DNA synthesis of AML193 cells) (IL-3 receptor [1]): 1.1e-05 relative to reference IL-3
binding result (IL-3 receptor [3]): no binding

B14: hIL-3 deletion mutant 937 (deletion 89-95) (ligand)
chain: APMTQTTPLKTSWVNCSNMIDEIITHLKQPPLPLLDFNNLNGEDQDILMENNLRRPNLEAFNRAVKSLQNASAIESILKNLLPCLPLAPIHIKDGDWNEFRRKLTFYLKTLENAQAQQTTLSLAIF
notes: as for B12
REL. SPEC. BIOLOGICAL ACTIVITY (DNA synthesis of AML193 cells) (IL-3 receptor [1]): 1e-05 relative to reference IL-3
binding result (IL-3 receptor [3]): no binding

B15: hIL-3 deletion mutant 822 (deletion 107-119) (ligand)
chain: APMTQTTPLKTSWVNCSNMIDEIITHLKQPPLPLLDFNNLNGEDQDILMENNLRRPNLEAFNRAVKSLQNASAIESILKNLLPCLPLATAAPTRHPIHIKDGDWNENAQAQQTTLSLAIF
notes: as for B12
REL. SPEC. BIOLOGICAL ACTIVITY (DNA synthesis of AML193 cells) (IL-3 receptor [1]): 0.00021 relative to reference IL-3
relative antagonistic potential (relative receptor binding activity / relative biological activity) (IL-3 receptor [2]): 1.9

B16: pGB/IL-336 IL-3 fusion protein (ligand)
chain: MTMITNSRGSVDAPMTQTTPLKTSWVNCSNMIDEIITHLKQPPLPLLDFNNLNGEDQDILMENNLRRPNLEAFNRAVKSLQNASAIESILKNLLPCLPLATAAPTRHPIHIKDGDWNEFRRKLTFYLKTLENAQAQQTTLSLAIF
REL. SPEC. BIOLOGICAL ACTIVITY (DNA synthesis of AML193 cells) (IL-3 receptor [1]): 0.79 relative to reference IL-3
relative antagonistic potential (relative receptor binding activity / relative biological activity) (IL-3 receptor [2]): 1.1

B17: hIL-3 combination deletion mutant X (deletions 1-14/120-133) (ligand)
chain: NCSNMIDEIITHLKQPPLPLLDFNNLNGEDQDILMENNLRRPNLEAFNRAVKSLQNASAIESILKNLLPCLPLATAAPTRHPIHIKDGDWNEFRRKLTFYLKTLE
notes: expressed in Bacillus, lacks a leader
REL. SPEC. BIOLOGICAL ACTIVITY (DNA synthesis of AML193 cells) (IL-3 receptor [1]): 0.23 relative to reference IL-3
relative antagonistic potential (relative receptor binding activity / relative biological activity) (IL-3 receptor [2]): 8.9

B18: hIL-3 combination deletion mutant Z (deletions 1-14/116-133) (ligand)
chain: NCSNMIDEIITHLKQPPLPLLDFNNLNGEDQDILMENNLRRPNLEAFNRAVKSLQNASAIESILKNLLPCLPLATAAPTRHPIHIKDGDWNEFRRKLTFYL
notes: as for B17
REL. SPEC. BIOLOGICAL ACTIVITY (DNA synthesis of AML193 cells) (IL-3 receptor [1]): 0.11 relative to reference IL-3
relative antagonistic potential (relative receptor binding activity / relative biological activity) (IL-3 receptor [2]): 1.6

B19: hIL-3 deletion mutant 933 (deletion 29-37) (ligand)
chain: APMTQTTPLKTSWVNCSNMIDEIITHLKNNLNGEDQDILMENNLRRPNLEAFNRAVKSLQNASAIESILKNLLPCLPLATAAPTRHPIHIKDGDWNEFRRKLTFYLKTLENAQAQQTTLSLAIF
notes: as for B17
REL. SPEC. BIOLOGICAL ACTIVITY (DNA synthesis of AML193 cells) (IL-3 receptor [1]): 0.0057 relative to reference IL-3
relative antagonistic potential (relative receptor binding activity / relative biological activity) (IL-3 receptor [2]): 1.1

B20: hIL-3 deletion mutant 811 (deletion 31-49) (ligand)
chain: APMTQTTPLKTSWVNCSNMIDEIITHLKQPENNLRRPNLEAFNRAVKSLQNASAIESILKNLLPCLPLATAAPTRHPIHIKDGDWNEFRRKLTFYLKTLENAQAQQTTLSLAIF
notes: as for B17
REL. SPEC. BIOLOGICAL ACTIVITY (DNA synthesis of AML193 cells) (IL-3 receptor [1]): 0.0048 relative to reference IL-3
relative antagonistic potential (relative receptor binding activity / relative biological activity) (IL-3 receptor [2]): 1.6

B21: hIL-3 deletion mutant 810 (deletion 20-30) (ligand)
chain: APMTQTTPLKTSWVNCSNMPLPLLDFNNLNGEDQDILMENNLRRPNLEAFNRAVKSLQNASAIESILKNLLPCLPLATAAPTRHPIHIKDGDWNEFRRKLTFYLKTLENAQAQQTTLSLAIF
notes: also called 4810; not shown: heterologous N-terminal leader of the E. coli fusion (pGB/IL-336: 12 aa; pGB/IL-339: 15 aa)
REL. SPEC. BIOLOGICAL ACTIVITY (DNA synthesis of AML193 cells) (IL-3 receptor [1]): 0.0021 relative to reference IL-3
relative antagonistic potential (relative receptor binding activity / relative biological activity) (IL-3 receptor [2]): 2.4

B22: hIL-3 deletion mutant 812 (deletion 54-61) (ligand)
chain: APMTQTTPLKTSWVNCSNMIDEIITHLKQPPLPLLDFNNLNGEDQDILMENNLNRAVKSLQNASAIESILKNLLPCLPLATAAPTRHPIHIKDGDWNEFRRKLTFYLKTLENAQAQQTTLSLAIF
notes: as for B12
REL. SPEC. BIOLOGICAL ACTIVITY (DNA synthesis of AML193 cells) (IL-3 receptor [1]): 5.3e-05 relative to reference IL-3
relative antagonistic potential (relative receptor binding activity / relative biological activity) (IL-3 receptor [2]): 1.2
